Reference: patent US20230357424A1 (published 2023)
Values belong to the molecule of their own block, whether it stands above or below them.

What was measured:
[1] = target: human CD45 D1-D4 (amino acids 194-578) with C-terminal 8xHis tag (human) (UniProt P08575); experiment: SPR, Biacore T200, single cycle kinetics; IgG captured on Protein A chip, CD45 D1-D4 as analyte
[2] = target: human CD45 D1-D4 (amino acids 194-578) with C-terminal 8xHis tag (human) (UniProt P08575); experiment: SPR, Biacore T200, single cycle kinetics; scFv-Fc captured on Protein A chip, CD45 D1-D4 as analyte
[3] = target: T1, human CD45 D1-D4 (amino acids 194-578) with C-terminal 8xHis tag (human, UniProt P08575 194-578); experiment: SPR, Biacore T200, single cycle kinetics; VHH monomeric Fc fusion captured on Protein A chip, CD45 D1-D4 as analyte
T1 construct: Made in house in expi293 cells; SPR analyte; also called D1-D4 region of human CD45RO
T1 sequence: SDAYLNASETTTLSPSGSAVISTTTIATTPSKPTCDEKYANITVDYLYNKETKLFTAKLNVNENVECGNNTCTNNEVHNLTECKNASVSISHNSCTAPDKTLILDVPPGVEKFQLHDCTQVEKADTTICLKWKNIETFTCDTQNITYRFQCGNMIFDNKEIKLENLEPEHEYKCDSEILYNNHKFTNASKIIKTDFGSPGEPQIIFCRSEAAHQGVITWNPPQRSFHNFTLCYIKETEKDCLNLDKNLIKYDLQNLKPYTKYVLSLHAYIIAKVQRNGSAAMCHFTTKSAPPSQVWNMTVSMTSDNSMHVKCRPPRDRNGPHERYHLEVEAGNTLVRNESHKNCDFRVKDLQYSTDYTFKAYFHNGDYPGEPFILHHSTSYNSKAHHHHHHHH
Procedure: The yeast display system as described above was employed to domain map the VHH binding sites. For labeling, His-tagged VHH proteins were incubated with the yeast and detected using an anti-VHH antibody. Seven VHH clonotypes bound across all four domains of CD45RO, with clonotypes 3, 4, and 7 targeting the D1 and D2 domains, clonotype 10 binding the D3 domain, clonotypes 2, 6, and 8 interacting with the D4 domain (Table 3).
Affinities were determined using a Biacore T200 instrument by measuring Kon/Koff in single cycle kinetics mode. Hybridoma clones were either reformatted and expressed in the form of the parent IgG (gap8.3, 4B2, 9.4 as murine IgG2A, VHE as human IgG1), and scFvs were expressed as human IgG1 Fc fusions. For the anti-CD45 VHH, proteins were expressed as monomeric Fc fusions. […] Human CD45 D1-D4 was generated in house with a C-terminal 8×His tag (SEQ ID NO: 610) and expressed and purified from expi293 cells by standard Ni- and SEC chromatography methods. Kinetic affinity constants were calculated using the Biacore® T200 software package.

[4] = target: T2, hCD45 D1 domain displayed on yeast as Aga2 fusion (human); experiment: epitope mapping (yeast display) and affinity studies; grade in column Notes
T2 construct: not shown: Aga2p anchor protein for yeast surface expression
T2 chain: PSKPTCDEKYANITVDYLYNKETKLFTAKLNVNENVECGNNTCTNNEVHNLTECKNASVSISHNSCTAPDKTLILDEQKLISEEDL
Procedure: (§1) CD45 domains described in FIG. 2 were fused to the C-term of Aga2 with an N-term FLAG and C-term c-Myc tag. Yeast constructs were expressed on the surface of yeast (S. cervisiae ATCC strain YVH10). Yeast were grown overnight at 30C in synthetic selective media SD-SCAA, then induced again overnight at 20° C. in SG-SCAA. Yeast were incubated with individual a-CD45 antibodies or a-CD45 VHH for 60 minutes on ice, washed, and incubated with anti-mouse/anti-human Fc or anti-VHH Alexa647 secondary antibody as well as an anti-FLAG or anti-c-Myc Alexa488 secondary antibody. Labeled yeast were analyzed by flow cytometry on a Beckman Coulter Cytoflex® and analyzed using the FlowJo® software package.
(§2) The results of the epitope mapping of the VHHs described above conducted in substantial accordance with the teaching of Example 3 and the affinity measurements conducted in substantial accordance with the teaching of Example 4 above are summarized in the following Table 7 and the sequences of the VHHs and corresponding CDRs are provide in Table 4 above: […]

[5] = target: T3, hCD45 D3 domain displayed on yeast as Aga2 fusion (human); experiment: as above
T3 construct: not shown: Aga2p anchor protein for yeast surface expression
T3 chain: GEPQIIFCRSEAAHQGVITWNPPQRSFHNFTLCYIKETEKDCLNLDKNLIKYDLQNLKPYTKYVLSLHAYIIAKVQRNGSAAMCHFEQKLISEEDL
Procedure: as §1, §2

[6] = target: T4, hCD45 D4 domain displayed on yeast as Aga2 fusion (human, UniProt P08575 479-571); experiment: as above
T4 construct: not shown: Aga2p anchor protein for yeast surface expression
T4 sequence: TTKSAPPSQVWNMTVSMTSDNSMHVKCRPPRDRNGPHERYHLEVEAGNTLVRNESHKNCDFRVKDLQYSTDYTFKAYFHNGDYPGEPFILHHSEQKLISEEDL
Procedure: as §1, §2

Kd [1]: 2.4 nM
Molecule: 9.4 anti-CD45 antibody, recombinant mouse IgG2a

Kd [2]: 18 nM
Molecule: 9.4 scFv linked to a human IgG1 Fc domain

Kd [3]: 0.88 nM
B1: 2H7 VHH monomeric Fc fusion (Fc fusion)
VHH: QVQLQESGGGLVQAGGSLRLSCAASGRTFSTHAMGWFRQAPGKEREFVAAIAWSGGSTYYADSVKGRFTISRDISKNTIYLQMNSLKPEDTALYYCAATNGGAWHYHERYFGSWGQGTLVTVSS
notes: Clonotype 8; Construct used for SPR; not shown: monomeric Fc tag

Kd [3]: 1.4 nM
B2: 2C5 VHH monomeric Fc fusion (Fc fusion)
VHH: QVQLQEFGGGLVQAGASLRLSCAASGGTFSYFMGWFRQAPGKEREFVATINRNGGATGYADSVKGRFTISRDNAKNTLYLQMDSVTPEDTAVYYCAAARESSVYYTSTDPAEYGYWGQGTQVTVSS
notes: Clonotype 6; Construct used for SPR; not shown: monomeric Fc tag

Kd [3]: 299 nM
B3: 1E4 VHH monomeric Fc fusion (Fc fusion)
VHH: QVQLQESGGGLVQPGGSLRLSCAASGGTFSDYGMGWFRQAPGKEREFVSSISWSGNSVYYAGAVRGRFTISRDNAKNTVYLQMNSLQPEDTAVYYCAASSTWNNNDPTEYEYWGQGTLVTVSS
notes: Clonotype 3; Construct used for SPR; not shown: monomeric Fc tag

Kd [1]: 21 nM
B4: gap8.3 anti-CD45 antibody, recombinant mouse IgG2a (antibody, from another filing, V domains shown)
VH: EVQLQQSGPELVKTGASVKISCKASGYSFTGYFIHWVKQSHGKSLEWIGYISCYNGATSYNQKFKGKATFTVDTSSSTAYMQFNSVTSEDSAVYYCVRNYYGNLDAMDYWGQGTSVTVSS
VL: DIVMTQSHKFMSTSVGDRVSITCKASQDVSTAVAWYQQKPGQSPKILIYSASYRYTGVPDRFTGSGSGTDFTFTISSVQAEDLAVYYCQQHYSTPRTFGGGTKLEIK

Kd [2]: 40 nM
B5: gap8.3 scFv linked to a human IgG1 Fc domain (scFv, from another filing, V domains shown)
VH: EVQLQQSGPELVKTGASVKISCKASGYSFTGYFIHWVKQSHGKSLEWIGYISCYNGATSYNQKFKGKATFTVDTSSSTAYMQFNSVTSEDSAVYYCVRNYYGNLDAMDYWGQGTSVTVSS
VL: DIVMTQSHKFMSTSVGDRVSITCKASQDVSTAVAWYQQKPGQSPKILIYSASYRYTGVPDRFTGSGSGTDFTFTISSVQAEDLAVYYCQQHYSTPRTFGGGTKLEIK

Kd [3]: 28 nM
B6: 1G1 VHH monomeric Fc fusion (Fc fusion)
VHH: QVQLQASGGGLVQAGGSLRLSCAASGRTVSSDAMGWFRQAPGKEREFVAAINWNGASTYYGDSAQGRFTISRDNAKNTVYLQMNSLKSEDTAVYYCAASDWVVGGISLMNGAEYKYWGQGTLVTVSS
notes: Clonotype 7; Construct used for SPR; not shown: monomeric Fc tag

binding result [4]: binds
B7: 1G1 VHH, His-tagged (VHH)
VHH: QVQLQASGGGLVQAGGSLRLSCAASGRTVSSDAMGWFRQAPGKEREFVAAINWNGASTYYGDSAQGRFTISRDNAKNTVYLQMNSLKSEDTAVYYCAASDWVVGGISLMNGAEYKYWGQGTLVTVSS
notes: Clonotype 7; not shown: His tag

Kd [3]: 69 nM
B8: 2F8 VHH monomeric Fc fusion (Fc fusion)
VHH: QVQLQQFGGGLVQAGGSLRLSCAASGRTFSGYAMGWFRQAPGKEREFVAAINWSGGSTYYADSVKGRYTISRDNAKNTGYLQMNSLKSEDTAVYYCAASDWVVGGISLMNGAEYKYWGQGTLVTVSS
notes: as for B6

Kd [3]: 32 nM
B9: 1A10 VHH monomeric Fc fusion (Fc fusion)
VHH: QVQLQAFGGGLVQAGGSLGLSCSASGTIFNLDYMGWYRQALGKQRELVATITSDGRTNYADSVKGRFTIFRDGAKNAILMQMNSLKPEDTAVYYCKAYLSGRSDYWGQGTQVTVSS
notes: Clonotype 10; Construct used for SPR; not shown: monomeric Fc tag

binding result [5]: binds
B10: 1A10 VHH, His-tagged (VHH)
VHH: QVQLQAFGGGLVQAGGSLGLSCSASGTIFNLDYMGWYRQALGKQRELVATITSDGRTNYADSVKGRFTIFRDGAKNAILMQMNSLKPEDTAVYYCKAYLSGRSDYWGQGTQVTVSS
notes: Clonotype 10; not shown: His tag

binding result [5]: binds
B11: 1D6 VHH, His-tagged (VHH)
VHH: QVQLQESGGGSVQAGGSLGLFCSASGTIFNIDVMGWYRQAPGKQRELVATITSDGRTNYADSVKGRFTISRDGAKNAVHVQMNSLKPEDTAVYYCKAYLSGRSDYWGQGTQVTVSS
notes: as for B10

Kd [3]: 522 nM
B12: 1D6 VHH monomeric Fc fusion (Fc fusion)
VHH: QVQLQESGGGSVQAGGSLGLFCSASGTIFNIDVMGWYRQAPGKQRELVATITSDGRTNYADSVKGRFTISRDGAKNAVHVQMNSLKPEDTAVYYCKAYLSGRSDYWGQGTQVTVSS
notes: as for B9

binding result [6]: binds
B13: 2D6 VHH, His-tagged (VHH)
VHH: QVQLQESGGGLVQAGASLRLSCAASGRTFSSFMGWFRQAPGKERKFVATINWNGGATGYADSVKGRFTISRDNAKNTLYLQMNSLKPEDTAVYYCAAARTGSAYYTSSDAGEYNYWGQGTQVTVSS
notes: Clonotype 6; not shown: His tag

Kd [3]: 8.3 nM
B14: 2G4 VHH monomeric Fc fusion (Fc fusion)
VHH: QVQLQEFGGGLVQAGGSLRLSCAASGSISRINAMGWYRQAPGKQRELVAVITSGGSTHYADSVKGRFTISRDNAKNTLYLQMNSLKPEDTAVYYCNGRRKTTGWGSLREWEGSRDPDEYNYWGQGTLVTVSS
notes: Clonotype 2; Construct used for SPR; not shown: monomeric Fc tag

Kd [1]: 17 nM
B15: 4B2 anti-CD45 antibody, recombinant mouse IgG2a (antibody, from another filing, V domains shown)
VH: GVQLQESGAELARPGASVKMSCKASGYTFTSYTMQWVKQRPGQGLEWIGYINPSSGYIKYNQKFKDKVTLTADKSSTTAYMQLSRLTSEDSAVYYCARRGSYFFDFWGQGTSVTVSS
VL: DIVITQDELSNPVTSGESVSISCRSSKSLLYKDGKTYLNWFLQRPGQSPQLLIYLMSTRASGVSDRFSGSGSGTDFTLEISRVKAEDVGVYYCQQLVEYPFTFGGGTKLEVK

Kd [2]: 12 nM
B16: 4B2 scFv linked to a human IgG1 Fc domain (scFv, from another filing, V domains shown)
VH: GVQLQESGAELARPGASVKMSCKASGYTFTSYTMQWVKQRPGQGLEWIGYINPSSGYIKYNQKFKDKVTLTADKSSTTAYMQLSRLTSEDSAVYYCARRGSYFFDFWGQGTSVTVSS
VL: DIVITQDELSNPVTSGESVSISCRSSKSLLYKDGKTYLNWFLQRPGQSPQLLIYLMSTRASGVSDRFSGSGSGTDFTLEISRVKAEDVGVYYCQQLVEYPFTFGGGTKLEVK
